Data: paper PMC7181634, “Enhanced succinic acid production by Mannheimia employing optimal malate dehydrogenase” (Nature Communications, 2020)

What was measured:
purified protein [1] = substrate: O=C(O)CC(=O)C(=O)O; test: purified protein; assay type: biochemical, [Mannheimia] succiniciproducens; conditions: pH 7.0, 0.1 M Tris-HCl, NADH co-substrate, room temperature
purified protein [2] = substrate: O=C(O)CC(=O)C(=O)O; test: purified protein; assay type: biochemical, Corynebacterium glutamicum; conditions: pH 7.0, 0.1 M Tris-HCl, NADH co-substrate, room temperature

Protein	Km (purified protein [1])	kcat (purified protein [1])	kcat/Km (purified protein [1])	Km (purified protein [2])	kcat (purified protein [2])	kcat/Km (purified protein [2])
MsMDH ([Mannheimia] succiniciproducens MBEL55E) (protein, full length, C-terminal 6xHis (pET30a), expressed in E. coli BL21(DE3), Ni-NTA, ion exchange and size exclusion) MKVAVLGAAGGIGQALALLLKLQLPAGSSLSLYDVAPVTPGVAKDLSHIPTDVVVEGFAGTDPSEALKGADIVLISAGVARKPGMTRADLFGVNAGIIRSLTEKVAEQCPKACVGIITNPVNAMVAIAAEVLKKAGVYDKRKLFGITTLDILRAETFIAELKGLDPTRVTIPVIGGHSGVTILPLLSQVQNVEWSSEEEIIALTHRIQNAGTEVVEAKAGGGSATLSMAQAAARFALALVKASQGAKVVECAYVEGDGKYARFFAQPVRLGTEGVEEYLTLGKLSAFEEKALNAMLETLQGDIKSGEDFING	18.2 ± 10.5 µM	376 ± 119 s⁻¹	2.07e+07 ± 4.5e+06 M⁻¹ s⁻¹			
MsMDH ([Mannheimia] succiniciproducens MBEL55E; G11Q) (protein, full length, C-terminal 6xHis (pET30a), expressed in E. coli BL21(DE3), Ni-NTA, ion exchange and size exclusion) MKVAVLGAAGQIGQALALLLKLQLPAGSSLSLYDVAPVTPGVAKDLSHIPTDVVVEGFAGTDPSEALKGADIVLISAGVARKPGMTRADLFGVNAGIIRSLTEKVAEQCPKACVGIITNPVNAMVAIAAEVLKKAGVYDKRKLFGITTLDILRAETFIAELKGLDPTRVTIPVIGGHSGVTILPLLSQVQNVEWSSEEEIIALTHRIQNAGTEVVEAKAGGGSATLSMAQAAARFALALVKASQGAKVVECAYVEGDGKYARFFAQPVRLGTEGVEEYLTLGKLSAFEEKALNAMLETLQGDIKSGEDFING	103.5 ± 25.9 µM	927 ± 152 s⁻¹	9e+06 ± 400000 M⁻¹ s⁻¹			
CgMDH (Corynebacterium glutamicum ATCC 13032) (protein, full length, C-terminal 6xHis (pET30a), expressed in E. coli BL21(DE3), Ni-NTA, ion exchange and size exclusion) MNSPQNVSTKKVTVTGAAGQISYSLLWRIANGEVFGTDTPVELKLLEIPQALGGAEGVAMELLDSAFPLLRNITITADANEAFDGANAAFLVGAKPRGKGEERADLLANNGKIFGPQGKAINDNAADDIRVLVVGNPANTNALIASAAAPDVPASRFNAMMRLDHNRAISQLATKLGRGSAEFNNIVVWGNHSATQFPDITYATVGGEKVTDLVDHDWYVEEFIPRVANRGAEIIEVRGKSSAASAASSAIDHMRDWVQGTEAWSSAAIPSTGAYGIPEGIFVGLPTVSRNGEWEIVEGLEISDFQRARIDANAQELQAEREAVRDLL				46.1 ± 7.3 µM	920 ± 77 s⁻¹	1.99e+07 ± 300000 M⁻¹ s⁻¹
